Measured values: US6258776A, “Calcium-regulated kinase” (priority 1997, dated 2001)
Entries after “also recorded” stand apart in the source; their conditions may differ.

Legend:
HA-Ndr WT [1] = assay: A23187 treatment of COS-1 cells co-expressing HA-Ndr WT and S100B, Ndr kinase activity; format: cell-based; settings: 20 μM A23187
Description: In order to provide direct evidence that Ca^2+ /S100B regulates Ndr activity in vivo, COS-1 cells are co-transfected with expression constructs for Ndr and S100B (pECE-HA-Ndr, which expresses haemaglutinin epitope-tagged Ndr from an SV40 promoter, and pECE-S100B). Two Ndr constructs are used, expressing either wild-type Ndr (Ndr WT) or Ndr lacking the previously identified S100B binding domain (Ndr Δ65-81).Then, the cells are treated for various lengths of time with 20 μM A23187, a calcium ionophore.

HA-Ndr WT [2] = settings: 10 nM, 1 h
Description: COS-1 cells expressing HA-Ndr WT (as in Example 5) are treated either with solvent alone (Control) or with a panel of cell permeable protein phosphatase inhibitors. The cells are then extracted, HA-Ndr is immunoprecipitated with the anti-HA mAb 12CA5, and the kinase activity of Ndr measured as before, using the peptide substrate.

PP2A = settings: 10 nM calyculin A; cited from earlier work
[3] = system: protein phosphatase 1 (PP1); settings: 10 nM calyculin A; cited from earlier work
GST-Ndr [4] = target: T1, GST-Ndr (Homo sapiens, UniProt Q15208); assay: Ndr peptide substrate phosphorylation assay; format: biochemical; settings: 0.5 mg/ml peptide, 3 h at 30° C., KKRNRRLSVA = 100%
T1 construct: made in house
Description: When incubated in vitro with Mg-ATP, Ndr incorpora tes phosphate by an intramolecular autophosphorylation mechanism (Millward, T. A., et al., (1995) Proc. Natl. Acad. Sci. USA 92, 5022-5026). […] To develop a convenient in vitro kinase assay for Ndr, an assembled library of synthetic peptides is screened for potential Ndr substrates. 5 μg GST-Ndr WT or GST-Ndr K118A (Miliward, T. A., et al., (1995) Proc. Natl. Acad. Sci. USA 92, 5022-5026), immobilised on 2.5 μl glutathione-agarose beads (Sigma), is assayed in a 25 μl reaction containing 50 mM Tris-HCl pH 7.5, […] MgCl2, 1 mM dithiothreitol, 100 μM [γ-^32 P] ATP (0.3 μCi/μl) and 0.5 mg/ml peptide. After incubation at 3 h at 30° C. (during which time phosphate incorporation into peptides is linear), aliquots of the reaction are spotted onto 2 cm^2 squares of P81 phosphocellulose paper (Whatman), which are then washed 5×5 min in 1% phosphoric acid and once in acetone, before counting in a liquid scintillation counter.
Several peptides are identified which could serve as Ndr substrates (Table 1; SEQ. ID. No. 1 to 31). By comparing the efficiency of phosphorylation of the various peptides, several conclusions regarding the substrate specificity of Ndr can be drawn. […] Secondly, most of the peptides which are detectably phosphorylated contained a basic amino acid at position -6 relative to the phosphoaccepting serine. […] A basic amino acid at -6 is however not sufficient for substrate recognition, since this peptide is also not phosphorylated. Thirdly, a basic residue at -5 appeared to be also important, although not essential, for efficient phosphorylation by Ndr. Basic amino acids at -3, -2 and -7 are also important. Proline at +1 appears to be inhibitory, whilst the presence of amino acids carboxy-terminal to the phosphoacceptor is important, removal of the residue at +2 reducing activity. The best Ndr substrate from these series of peptides is ([…], SEQ. ID. No. 1), and this peptide is used for Ndr kinase assays in subsequent experiments.

GST-Ndr [5] = target: T1, GST-Ndr; assay: GST-Ndr peptide kinase assay with calcium-binding proteins; format: biochemical; settings: added together with Ca^2+; 60 min, 30° C.
Description: 1 μg GST-Ndr WT or GST-Ndr K118A, either in solution or immobilised on glutathione-agarose beads, is assayed in a 20 μl reaction containing 20 mM Tris-HCl pH 7.5, 5 mM MgCl2, 1 mM dithiothreitol, 100 μM [γ-^32 P] […] Reactions are supplemented with either 2 mM EGTA or various concentrations of CaCl2. Bovine CaM, bovine S100B (both from Sigma) or recombinant calcium-binding proteins. After incubation at 30° C. for 60 min, aliquots of the reaction are spotted on to P81 phosphocellulose paper and counted as above.
In brief, coding regions are cloned into the PGEMEX expression vector (Promega) and resultant plasmids used to transform E. coli BL-21 LysS cells. After induction, S100 proteins are purified by ammonium sulphate precipitation followed by Ca^2+ -dependent phenyl-Sepharose chromatography.
The proteins are added together with Ca^2+ into GST-N dr peptide kinase assays. The proteins tested comprised S100A1 (S100α), S100A2 (S100L), S100A4 (CAPL), S100A6 (calcyclin) and S100B (S100β); α-parvalbumin is included as a negative control.
In order to estimate the binding affinity of S100B for Ndr, kinase assays are performed in which GST-Ndr is mixed with various concentrations of purified bovine S100B homodimer, in the presence or absence of calcium.
To determine whether activation of Ndr by S100B occurs at physiological Ca^2+ concentrations, Ndr activity is assayed with or without added S100B over a range of Ca^2+ concentrations.

Ndr = settings: transphosphorylation; cited from earlier work
calmodulin (CaM-agarose) = assay: binding of Ndr and deletion mutants from COS-1 cell lysates to CaM-agarose; settings: lysates supplemented with Ca^2+
Source text: In addition, the ability of untagged Ndr to interact with CaM is investigated. COS-1 cells are transfected with pECE or with derivative plasmids encoding wild-type Ndr, NdrΔ65-81 or NdrΔ1-84 (Millward, T. A., et al., (1995) Proc. Natl. Acad. Sci. USA 92, 5022-5026) using DEAE-dextran (Seed, B. and Aruffo, A. (1987) Proc. Natl. Acad. Sci. USA 84, 3365-3369). Seventy-two hours after transfection, cells are scraped into ice-cold phosphate-buffered saline (PBS), spun down, and disrupted in buffer A (TBS containing 1 mM dithiothreitol, 0.5 mM phenylmethylsulfonyl fluoride, 4 μM leupeptin and 1 mM benzamidine) using a tight-fitting all-glass dounce homogenizer. Extracts (20 μg) are adjusted to 1 mg/ml, supplemented with either 1 mM CaCl2 or 1 mM EGTA and then mixed for 2 h with 6 μl CaM-agarose. After washing three times with 1 ml of the corresponding binding buffer, the beads are eluted with buffer A containing 5 mM EGTA. Equal portions of the unbound and EGTA-eluted fractions are analysed by immunoblofting with anti-Ndr antibodies.
Samples are separated by SDS-PAGE and electroblotted to Immobilon-P membranes (Millipore). Blots are incubated in blocking buffer (50 mM Tris-HCl pH 7.5, 150 mM NaCl, 1% (v/v) Triton X-1 00, 0.5% (v/v) Tween 20, 5% (w/v) skim milk powder) and then probed for 2 h with primary antibodies diluted in the same buffer. Ndr and GST-Ndr are detected with Ab^452-465 at 4 μg/ml (Millward, T. A., et al., Op. Cit.); GST is detected with an anti-GST antiserum (1 :1000 dilution). Bound antibodies are detected using horseradish peroxidase-conjugated donkey anti-rabbit IgG antibodies and ECL substrates (Amersham).
To verify whether this domain of Ndr is indeed responsible for its interaction with CaM, deletion mutants of Ndr are expressed in COS-1 cells and tested for CaM binding as above. […] In lysates supplemented with Ca^2 , deletion of amino acids 65-81 cause a large reduction in CaM binding (to ~10% of the level of wild-type binding) as assessed by western blotting.

[6] = immune complex kinase assay, basal kinase activity of Ndr mutants; format: biochemical; settings: compared with wild-type Ndr
Description: In immune complex kinase assays and autophosphorylation assays (see below), COS-1 cells are transfected as described above or with pECE-Ndr-K118A. After 72 h, cells are washed with ice-cold PBS and lysed in lysis buffer (20 mM Tris-HCl pH 8.0, 150 mM NaCl, 1% (v/v) NP-40, 10% (v/v) glycerol, 5 mM EDTA, 0.5 mM EGTA, 0.5 mM phenylmethyl-sulfonyl fluoride, 4 μM leupeptin, 1 mM benzamidine, 1 μM microcystin and 1 mM Na3 VO4). Lysates are centrifuged at 14,000 g for 20 min. Duplicate aliquots of supernatant (250 μg, 2.5 mg/ml) are incubated for 2 h at 0° C. with 10 μg/ml Ab^1-465. Immune complexes are precipitated by addition of 2 μl protein A-Sepharose (Pharmacia) and mixing for 1 h. The beads are then washed twice with lysis buffer, once with lysis buffer containing 1 M NaCl, with lysis buffer again, and finally twice with 20 mM Tris-HCl pH 7.5. Beads are resuspended in 30 μl buffer containing 20 mM Tris-HCl pH 7.5, 10 mM MgCl2, 100 μM CaCl2, 1 mM dithiothreitol, 100 μM [γ-^32 P] ATP (0.5 μCi/μls), 1 mM Ndr substrate peptide ([…], SEQ. ID. No. 1), 1 μM cAMP-dependent protein kinase inhibitor peptide (PKI; purchased from Bachem, Bubendorf, Swit zerland), 4 μM leupeptin, 1 mM benzamidine, 1 μM microcystin and, in some assays, 20 μM bovine S100B. After 60 min at 30° C., phosphate incorporation into the peptide is quantitated as described above. […]

S100B = assay: co-immunoprecipitation of Ndr with anti-S100B from COS-1 cells; format: cell-based; settings: co-expressed with S100B
Description: For expression of Ndr and S100B in mammalian cells, the cDNAs encoding Ndr and S100B are cloned into the pECE vector, which directs expression driven by an SV40-derived promoter. In addition, an amino-terminal truncation mutant of Ndr lacking the first 84 amino acids (1-84) is used.
The plasmids encoding Ndr and S100B are transfected into COS-1 cells, either alone or in combination. Seventy-two hours later, cells extracts are prepared and immunoprecipitated with an antibody recognising S100B. In an anti-Ndr western blot of the cell extracts, it is shown that Ndr is expressed an expected.

T1 sequence (Q15208 whole entry): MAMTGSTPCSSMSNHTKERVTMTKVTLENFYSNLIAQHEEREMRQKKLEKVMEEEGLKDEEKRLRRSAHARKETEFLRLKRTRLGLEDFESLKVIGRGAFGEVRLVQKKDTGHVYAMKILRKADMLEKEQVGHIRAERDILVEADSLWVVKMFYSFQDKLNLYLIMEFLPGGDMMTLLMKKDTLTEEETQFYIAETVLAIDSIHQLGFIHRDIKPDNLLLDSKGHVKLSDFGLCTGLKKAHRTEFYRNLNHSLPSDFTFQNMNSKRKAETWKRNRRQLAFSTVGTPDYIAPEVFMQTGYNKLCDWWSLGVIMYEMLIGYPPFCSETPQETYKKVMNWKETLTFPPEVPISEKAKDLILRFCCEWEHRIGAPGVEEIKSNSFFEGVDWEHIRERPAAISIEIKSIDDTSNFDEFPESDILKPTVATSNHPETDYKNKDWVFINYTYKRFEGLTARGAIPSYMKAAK

Compound | Relative Ndr Activity (GST-Ndr [4]) | also measured
CNc1ccc2oc(C[C@H]3O[C@@]4(CC[C@H]3C)O[C@H]([C@H](C)C(=O)c3ccc[nH]3)[C@H](C)C[C@H]4C)nc2c1C(=O)O [A23187] | – | activation of HA-Ndr (HA-Ndr WT [1]): activation of HA-Ndr WT
COC[C@@H]([C@H](O)[C@H](O)C(=O)NCC[C@H](C)c1nc(/C=C/C[C@@H]2O[C@]3(C[C@@H](O)[C@@H]2C)O[C@H]([C@H](C[C@H](O)[C@H](C)[C@H](O)[C@H](C)/C=C(C)/C(C)=C/C=C/C(C)=C\C#N)OC)[C@H](OP(=O)(O)O)C3(C)C)co1)N(C)C [calyculin A] | – | activation of Ndr (HA-Ndr WT [2]): ~ 4 fold; inhibition of PP2A (PP2A): ~ 50%; inhibition of PP1 [3]: ~ 50%
AARNRTLSVA [SEQ. ID. No. 7] | 0% | –
KKRNRTLSV [SEQ. ID. No. 8] | 24% | –
KKRNRTLSVA [SEQ. ID. No. 6] | 60% | –
S100A1: S100 family protein, phylogenetically the closest known relative of S100B | – | increase in Ndr kinase activity (GST-Ndr [5]): 2-3 fold
casein | – | substrate of Ndr (Ndr): not substrates of Ndr
myelin basic protein | – | substrate of Ndr (Ndr): not substrates of Ndr
Δ1-84: Ndr deletion mutant lacking the complete amino terminal domain | – | binding to CaM-agarose (calmodulin (CaM-agarose)): no longer detectable; basal kinase activity [6]: only slightly reduced; also recorded: reduced basal kinase activity; co-immunoprecipitation with anti-S100B (S100B): abolishes co-immunoprecipitation

Now from value to compound, other results behind:

Relative Ndr Activity (GST-Ndr [4]) | Compound | also measured
39% | KARNRRLSVA (LARNRRLSVA) [SEQ. ID. No. 2] | –
18% | KKLNRRLSVA [SEQ. ID. No. 3] | –
15% | KKRNARLSVA [SEQ. ID. No. 4] | –
30% | KKRNRALSVA [SEQ. ID. No. 5] | –
100% | KKRNRRLSVA [SEQ. ID. No. 1] | –
0% | KKRNRTLSPA [SEQ. ID. No. 10] | –
0% | KKRNRTLTV [SEQ. ID. No. 9] | –
